In patent US6207419A, “Thrombin inhibitory agents and methods of using same” (The University of North Carolina at Chapel Hill, priority 1999, dated 2001):

Key:
[1] = molecular target: T1, plasma purified α-thrombin (Homo sapiens, UniProt P00734); assay: Thrombin inhibition in the presence of glycosaminoglycans (heparin or dermatan sulfate); type: biochemical
T1 construct: Human α-thrombin, HCII, and ATIII were purified in our laboratory from plasma; from tissue; host or cells: human plasma (purified in the authors' laboratory)
Experimental: Protease inhibition rates were determined as described previously (Rogers, S. J., Pratt, C. W., Whinna, H. C., and Church, F. C. (1992) J. Biol. Chem. 267(6), 3613-3617; Whinna, H. C., Choi, H. U., Rosenberg, L. C., and Church, F. C. (1993) J. Biol. Chem. 268, 3920-3924; Ciaccia, A. V., Cunningham, E. L., and Church, F. C. (1995) Protein Express. Purific. 6, 806-812; Ciaccia, A. V., Willemze, A. J., and Church, F. C. (1997) J. Biol. Chem. 272(2), 888-893). All assays were performed at room temperature in 96-well microtiter plates previously coated with 2 mg/mL BSA.
In the presence of glycosaminoglycans, 5 nM rHCII (wt, CHis6, CHis5 Pro, L444R, or L444R-CHis6) was incubated with 0.5 nM thrombin and 0-1 mg/mL heparin or 0-4 mg/mL dermatan sulfate or 10 nM rATIII (wt or CHis6) was incubated with 1 nM thrombin or factor Xa and 0-1 mg/mL heparin in the presence of 2 mg/mL BSA in HNPN, pH 7.4.
(§1) Residual thrombin activity was measured with 150 μM GlyProArg-NA and 1 mg/mL pB in the absence of glycosaminoglycan, 2 mg/mL pB in the presence of heparin and 4 mg/mL in the presence of dermatan sulfate. Residual factor Xa activity was measured with 500 μM Spectrozyme FXa and 2mg/mL pB in the presence or absence of glycosaminoglycan. Residual chymotrypsin activity was measured with 150 μM AlaAlaProPhe-NA and residual trypsin activity was measured with 150 μM GlyProArg-NA. Substrate cleavage was measured by color development at 405 nM on a Vmax Kinetic Microplate Reader (Molecular Devices).
Assays were performed at least in triplicate on two or more recombinant protein preparations. All inhibition studies were measured under pseudo-first order conditions where inhibitor [I] is at least ten-fold higher than enzyme (protease) [E], and second-order rate constants were calculated as described previously (Ciaccia, A. V., Cunningham, E. L., and Church, F. C. (1995) Protein Express. Purific. 6, 806-812; Ciaccia, A. V., Willemze, A. J., and Church, F. C. (1997) J. Biol. Chem. 272(2), 888-893).

[2] = Heparin-Sepharose affinity chromatography; type: binding; details: NaCl gradient, 20 mM Hepes pH 7.4
Experimental: 100 μL of each fraction was aliquoted onto a 96-well microtiter plate and ELISA was performed. The peak elution ionic strength was determined by plotting 405 nm color development and NaCl concentration against the fraction number. All samples were run at least in triplicate using two or more protein preparations. Recombinant ATIII samples were run similarly to the HCII samples, except the elution gradient was run from 50 mM to 2 M NaCl.

[3] = molecular target: T2, α-thrombin (Homo sapiens, UniProt P00734); assay: Effect of hirugen on thrombin inhibition in the absence of glycosaminoglycan; type: biochemical
T2 construct: Human α-thrombin, HCII, and ATIII were purified in our laboratory from plasma; from tissue; host or cells: human plasma (purified in the authors' laboratory)
Experimental: as §1, with “GlyProArg-NA.” for “GlyProArg-NA. Substrate cleavage was measured by color development at 405 nM on a Vmax Kinetic Microplate Reader (Molecular Devices).”
Assays were performed at least in triplicate on two or more recombinant protein preparations.

B1: rHCII-CHis6: Recombinant HCII with six histidine residues added at the carboxyl terminus; SEQ ID NO:5 (protein)
chain: MKHSLNALLIFLIITSAWGGSKGPLDQLEKGGETAQSADPQWEQLNNKNLSMPLLPADFHKENTVTNDWIPEGEEDDDYLDLEKIFSEDDDYIDIVDSLSVSPTDSDVSAGNILQLFHGKSRIQRLNILNAKFAFNLYRVLKDQVNTFDNIFIAPVGISTAMGMISLGLKGETHEQVHSILHFKDFVNASSKYEITTIHNLFRKLTHRLFRRNFGYTLRSVNDLYIQKQFPILLDFRTKVREYYFAEAQIADFSDPAFISKTNNHIMKLTKGLIKDALENIDPATQMMILNCIYFKGSWVNKFPVEMTHNHNFRLNEREVVKVSMMQTKGNFLAANDQELDCDILQLEYVGGISMLIVVPHKMSGMKTLEAQLTPRVVERWQKSMTNRTREVLLPKFKLEKNYNLVESLKLMGIRMLFDKNGNMAGISDQRIAIDLFKHQGTITVNEEGTQATTVTTVGFMPLSTQVRFTVDRPFLFLIYEHRTSCLLFMGRVANPSRSHHHHHH
modifications: C-terminal His6 tag
average dermatan sulfate concentration at which the maximal rate was measured (in parentheses), thrombin ([1]; Thrombin + dermatan sulfate, unit not printed in table (text b157: μg/mL)): 500 | average heparin concentration at which the maximal rate was measured (in parentheses), thrombin ([1]; Thrombin + heparin, unit not printed in table (text b156: μg/mL)): 5 | dermatan sulfate concentration at maximal rate of thrombin inhibition ([1]; dermatan sulfate): approximately 500 μg/mL | maximal rate of thrombin inhibition in the presence of dermatan sulfate ([1]; dermatan sulfate at optimal concentration): 1.80±0.50×10^9 M^-1 min^-1 | decrease in the amount of heparin required for maximal activity versus wt-rHCII ([1]; heparin): ~20 fold | heparin concentration at maximal rate of thrombin inhibition ([1]; heparin): 5 µg/mL | maximal rate of thrombin inhibition in the presence of heparin ([1]; heparin at optimal concentration): 2.23±0.43×10^9 M^-1 min^-1 | Inhibition Rate k2 × 10^8 (M^-1 min^-1), Thrombin + dermatan sulfate ([1]; maximal rate of dermatan sulfate curve, mean ± S.D.): 18.0 ± 5.0 × 10^8 (M^-1 min^-1) | Inhibition Rate k2 × 10^8 (M^-1 min^-1), Thrombin + heparin ([1]; maximal rate of heparin curve, mean ± S.D.): 22.3 ± 4.3 × 10^8 (M^-1 min^-1) | Ratio (variant/wt), Thrombin + dermatan sulfate ([1]; maximal rates): 1.2 | Ratio (variant/wt), Thrombin + heparin ([1]; maximal rates): 2.4 | increase in the rate of thrombin inhibition with heparin versus wt-rHCII ([1]; maximal rates with heparin): > 2 fold | increase of rate of thrombin inhibition with heparin ([1]; with heparin versus without): over 100,000 fold | Heparin-Sepharose [NaCl], peak elution concentration [2]: 575 mM | reduction of rate of thrombin inhibition by hirugen ([3]; hirugen 20 μM, absence of glycosaminoglycan): > 50% | rate constant of inhibition (k2) in the absence of peptide ([3]; no hirugen, no control peptide, FIG. 5): 310 M⁻¹ s⁻¹
